Results published in patent US20040141968A1.

Tests used:
[1] = biological target: recombinant soluble CMV envelope glycoprotein B (human cytomegalovirus) (UniProt P13201); assay: SPR (Biacore); DC-SIGN CRD injected over immobilised CMV gB; from koff/kon
[2] = biological target: recombinant soluble CMV envelope glycoprotein B (human cytomegalovirus) (UniProt P13201); assay: SPR (Biacore); DC-SIGN CRD injected over immobilised CMV gB; Langmuir fit, average

Sequence of recombinant soluble CRD of DC-SIGN (amino acids 254-404) (Q9NNX6 254-404 limits assumed): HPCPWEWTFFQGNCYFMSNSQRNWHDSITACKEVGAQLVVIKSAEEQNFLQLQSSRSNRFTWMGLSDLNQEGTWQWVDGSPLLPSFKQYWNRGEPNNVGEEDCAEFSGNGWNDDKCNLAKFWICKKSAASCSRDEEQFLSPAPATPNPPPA

Q: For “recombinant soluble CRD of DC-SIGN (amino acids 254-404) (from UniProt Q9NNX6 254-404) (receptor)”, which Kd [1] is on record?
A: 290 nM

Q: What about the koff [2] of the same substance?
A: 0.00126 s⁻¹

Q: And the kon [2]?
A: 4400 M⁻¹ s⁻¹
